Reference: patent US20190309059A1 (SHANGHAI PHARMAEXPLORER, published 2019)

Tests used:
[1] = biological target: his-labeled human IL-13 (immunogen A) (human) (UniProt P35225); assay: FACS blocking, biotin-IL-13 on IL-13Ra2 HEK293 cells; antibody at 0.01 nM
[2] = biological target: his-labeled human IL-13 (immunogen A) (human) (UniProt P35225); assay: FACS blocking, biotin-IL-13 on IL-13Ra2 HEK293 cells; antibody at 0.27 nM
[3] = biological target: his-labeled human IL-13 (immunogen A) (human) (UniProt P35225); assay: FACS blocking, biotin-IL-13 on IL-13Ra1/IL-4Ra HEK293 cells; antibody at 6.67 nM
[4] = biological target: his-labeled human IL-13 (immunogen A) (human) (UniProt P35225); assay: FACS blocking, biotin-IL-13 on IL-13Ra1/IL-4Ra HEK293 cells; antibody at 0.01 nM
[5] = biological target: his-labeled human IL-13 (immunogen A) (human) (UniProt P35225); assay: ELISA, biotin-immunogen A; antibody at 0.00 nM (as printed, 7th dilution)
[6] = biological target: cynomolgus IL-13 (purchased from sino biological) (cynomolgus) (UniProt Q0PW92); assay: ELISA, cynomolgus IL-13; antibody at 2.67 nM
cynomolgus IL-13 (purchased from sino biological) (cynomolgus), sequence (Q0PW92 entry or part of it): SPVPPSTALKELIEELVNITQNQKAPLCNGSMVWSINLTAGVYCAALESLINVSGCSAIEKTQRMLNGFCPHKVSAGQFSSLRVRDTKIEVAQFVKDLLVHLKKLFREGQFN

[7] = biological target: cynomolgus IL-13 (purchased from sino biological) (cynomolgus) (UniProt Q0PW92); assay: ELISA, cynomolgus IL-13; antibody at 0.004 nM
[8] = biological target: his-labeled human IL-13 (immunogen A) (human) (UniProt P35225); assay: FACS blocking, biotin-IL-13 on IL-13Ra2 HEK293 cells; antibody at 6.67 nM
[9] = biological target: his-labeled human IL-13 (immunogen A) (human) (UniProt P35225); assay: FACS blocking, biotin-IL-13 on IL-13Ra1/IL-4Ra HEK293 cells; antibody at 0.002 nM
[10] = biological target: his-labeled human IL-13 (immunogen A) (human) (UniProt P35225); assay: FACS blocking, biotin-IL-13 on IL-13Ra1/IL-4Ra HEK293 cells; antibody at 0.27 nM
[11] = biological target: his-labeled human IL-13 (immunogen A) (human) (UniProt P35225); assay: FACS blocking, biotin-IL-13 on IL-13Ra2 HEK293 cells; antibody at 0.05 nM
[12] = biological target: cynomolgus IL-13 (purchased from sino biological) (cynomolgus) (UniProt Q0PW92); assay: ELISA, cynomolgus IL-13; antibody at 0.107 nM
[13] = biological target: his-labeled human IL-13 (immunogen A) (human) (UniProt P35225); assay: FACS blocking assay: antibody titrated with biotin-labeled immunogen A (20 ng/mL); blocked partner IL-13Ra2 on HEK293 clone 1A1; Alexa 488 streptavidin
[14] = biological target: his-labeled human IL-13 (immunogen A) (human) (UniProt P35225); assay: FACS blocking, biotin-IL-13 on IL-13Ra2 HEK293 cells; antibody at 33.33 nM
[15] = biological target: his-labeled human IL-13 (immunogen A) (human) (UniProt P35225); assay: FACS blocking, biotin-IL-13 on IL-13Ra2 HEK293 cells; antibody at 0.002 nM
[16] = biological target: cynomolgus IL-13 (purchased from sino biological) (cynomolgus) (UniProt Q0PW92); assay: ELISA, cynomolgus IL-13; antibody at 0.021 nM
[17] = biological target: his-labeled human IL-13 (immunogen A) (human) (UniProt P35225); assay: FACS blocking, biotin-IL-13 on IL-13Ra1/IL-4Ra HEK293 cells; antibody at 166.67 nM
[18] = biological target: cynomolgus IL-13 (purchased from sino biological) (cynomolgus) (UniProt Q0PW92); assay: ELISA, cynomolgus IL-13; antibody at 13.3 nM
[19] = biological target: his-labeled human IL-13 (immunogen A) (human) (UniProt P35225); assay: FACS blocking, biotin-IL-13 on IL-13Ra2 HEK293 cells; antibody at 1.33 nM
[20] = biological target: his-labeled human IL-13 (immunogen A) (human) (UniProt P35225); assay: FACS blocking, biotin-IL-13 on IL-13Ra1/IL-4Ra HEK293 cells; antibody at 33.33 nM
[21] = biological target: his-labeled human IL-13 (immunogen A) (human) (UniProt P35225); assay: FACS blocking, biotin-IL-13 on IL-13Ra2 HEK293 cells; antibody at 166.67 nM
[22] = biological target: his-labeled human IL-13 (immunogen A) (human) (UniProt P35225); assay: FACS blocking, biotin-IL-13 on IL-13Ra1/IL-4Ra HEK293 cells; antibody at 0.05 nM
[23] = biological target: his-labeled human IL-13 (immunogen A) (human) (UniProt P35225); assay: FACS blocking, biotin-IL-13 on IL-13Ra1/IL-4Ra HEK293 cells; antibody at 1.33 nM
[24] = biological target: cynomolgus IL-13 (purchased from sino biological) (cynomolgus) (UniProt Q0PW92); assay: ELISA, cynomolgus IL-13; antibody at 0.53 nM
[25] = biological target: his-labeled human IL-13 (immunogen A) (human) (UniProt P35225); assay: cell-based or functional assay
[26] = biological target: his-labeled human IL-13 (immunogen A) (human) (UniProt P35225); assay: ELISA, biotin-immunogen A; antibody at 2.67 nM
[27] = biological target: his-labeled human IL-13R130Q variant (human) (UniProt P35225); assay: ELISA, IL-13R130Q variant; antibody at 2.67 nM
his-labeled human IL-13R130Q variant (human), sequence (P35225 other isoform, or with tags, fused parts or gaps mutant): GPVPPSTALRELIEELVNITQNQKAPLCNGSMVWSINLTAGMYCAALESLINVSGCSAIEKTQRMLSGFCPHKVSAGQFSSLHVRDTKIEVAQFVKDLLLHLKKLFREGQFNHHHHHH

B1: c28A2E11 (mouse-human chimeric IL-13 antibody) (antibody, V domains shown)
VH: EVQLQQSGAELVKPGASVKLSCTASGFNIKDYYMHWVKQRTEQGLEWIGRIDPEDGETKYAPKFHDKATLTADTSSNTAYLQFSSLASEDTAVYYCTRYDYYGPFAYWGQGTLVTVSA
VL: QAVVTQESVLTTSPGETVTLTCRSSTGAVTTSNYANWVQEKPDHLFTGLIGGTNNRAPGVPARFSGSLIGDKAALTITGAQTEDEAIYFCALWYINHFIFGSGTKVTVL
In the case of B1, the mean fluorescence intensity [1] is reported as 99.1, the mean fluorescence intensity [2] is reported as 92.9 and the mean fluorescence intensity [3] is reported as 65.2. It also gave a mean fluorescence intensity [4] of 102, an OD450 nm [5] of 0.07 and an OD450 nm [6] of 1.34. The OD450 nm [7] was 0.073, the mean fluorescence intensity [8] was 65.7 and the mean fluorescence intensity [9] was 102. For the same binder, the mean fluorescence intensity [10] was 93, the mean fluorescence intensity [11] was 97.8 and the OD450 nm [12] was 0.183. It also gave an IC50 (read off the curve) [13] of 1 nM, a mean fluorescence intensity [14] of 64.8 and a mean fluorescence intensity [15] of 102. For the same binder, the OD450 nm [16] was 0.085, the mean fluorescence intensity [17] was 51.2 and the OD450 nm [18] was 2.4. For the same binder, the mean fluorescence intensity [19] was 77.7, the mean fluorescence intensity [20] was 61.9 and the mean fluorescence intensity [21] was 58. The mean fluorescence intensity [22] was 95.6, the mean fluorescence intensity [23] was 76.6 and the OD450 nm [24] was 0.54. The Periostin (pg/mL), MRCS cells + IL-13 5 ng/mL; antibody at 0.0002 nM [25] was 7090 pg/mL, the Periostin (pg/mL), MRCS cells + IL-13 5 ng/mL; antibody at 0.001 nM [25] was 6350 pg/mL and the Periostin (pg/mL), MRCS cells + IL-13 5 ng/mL; antibody at 0.004 nM [25] was 5500 pg/mL. It also gave a Periostin (pg/mL), MRCS cells + IL-13 5 ng/mL; antibody at 0.021 nM [25] of 4920 pg/mL, a Periostin (pg/mL), MRCS cells + IL-13 5 ng/mL; antibody at 0.11 nM [25] of 4130 pg/mL and a Periostin (pg/mL), MRCS cells + IL-13 5 ng/mL; antibody at 0.53 nM [25] of 1650 pg/mL. For the same binder, the Periostin (pg/mL), MRCS cells + IL-13 5 ng/mL; antibody at 2.67 nM [25] was 1100 pg/mL, the Periostin (pg/mL), MRCS cells + IL-13 5 ng/mL; antibody at 13.3 nM [25] was 1160 pg/mL and the VCAM-1 fluorescence intensity, HUVEC + IL-13 0.5 ng/mL + TNFα; antibody at 0.0002 nM [25] was 379. For the same binder, the VCAM-1 fluorescence intensity, HUVEC + IL-13 0.5 ng/mL + TNFα; antibody at 0.001 nM [25] was 346, the VCAM-1 fluorescence intensity, HUVEC + IL-13 0.5 ng/mL + TNFα; antibody at 0.004 nM [25] was 395 and the VCAM-1 fluorescence intensity, HUVEC + IL-13 0.5 ng/mL + TNFα; antibody at 0.021 nM [25] was 404. The VCAM-1 fluorescence intensity, HUVEC + IL-13 0.5 ng/mL + TNFα; antibody at 0.11 nM [25] was 278, the VCAM-1 fluorescence intensity, HUVEC + IL-13 0.5 ng/mL + TNFα; antibody at 0.53 nM [25] was 227 and the VCAM-1 fluorescence intensity, HUVEC + IL-13 0.5 ng/mL + TNFα; antibody at 2.67 nM [25] was 224. The VCAM-1 fluorescence intensity, HUVEC + IL-13 0.5 ng/mL + TNFα; antibody at 13.3 nM [25] was 207 and the OD450 nm [26] was 2.6.

B2: c35E2C3 (mouse-human chimeric IL-13 antibody) (antibody, V domains shown)
VH: EVQLQESGPGLAKPSQTLSLTCSVTGYSITSDYWNWIRKFPGNKLEYMGYISYNGNTYYNPSLKSQISITRDTSKNQLYLQLKSATTEDTATYYCARLAKWTWYFDIWGTGTTVTVSS
VL: DIQMNQSPSSLSASLGDTITITCHASQNINVWLSWYQQKPGSLPKLLIYKASDLHTGVPSRFSGSGSGTGFTLTISSLQPEDIATYYCQQGQSYPYTFGGGTKLEIK
B2 gave a mean fluorescence intensity [1] of 98.1, a mean fluorescence intensity [2] of 63.8 and a mean fluorescence intensity [3] of 19.5. It also gave a mean fluorescence intensity [4] of 96.8, an OD450 nm [5] of 0.07 and an OD450 nm [6] of 1.63. The OD450 nm [7] was 0.061, the mean fluorescence intensity [8] was 22.2 and the mean fluorescence intensity [9] was 102. It also gave a mean fluorescence intensity [10] of 81.5, a mean fluorescence intensity [11] of 90 and an OD450 nm [12] of 0.181. It also gave an IC50 (read off the curve) [13] of 0.3 nM, a mean fluorescence intensity [14] of 20.3 and a mean fluorescence intensity [15] of 99.1. The OD450 nm [16] was 0.136, the mean fluorescence intensity [17] was 18.7 and the OD450 nm [18] was 3.1. The mean fluorescence intensity [19] was 29, the mean fluorescence intensity [20] was 19.6 and the mean fluorescence intensity [21] was 19.3. It also gave a mean fluorescence intensity [22] of 96.7, an OD450 nm [27] of 3.1 and a mean fluorescence intensity [23] of 33.1. For the same binder, the OD450 nm [24] was 0.59, the Periostin (pg/mL), MRCS cells + IL-13 5 ng/mL; antibody at 0.0002 nM [25] was 7100 pg/mL and the Periostin (pg/mL), MRCS cells + IL-13 5 ng/mL; antibody at 0.001 nM [25] was 6020 pg/mL. For the same binder, the Periostin (pg/mL), MRCS cells + IL-13 5 ng/mL; antibody at 0.004 nM [25] was 4870 pg/mL, the Periostin (pg/mL), MRCS cells + IL-13 5 ng/mL; antibody at 0.021 nM [25] was 4480 pg/mL and the Periostin (pg/mL), MRCS cells + IL-13 5 ng/mL; antibody at 0.11 nM [25] was 4360 pg/mL. For the same binder, the Periostin (pg/mL), MRCS cells + IL-13 5 ng/mL; antibody at 0.53 nM [25] was 4460 pg/mL, the Periostin (pg/mL), MRCS cells + IL-13 5 ng/mL; antibody at 2.67 nM [25] was 2850 pg/mL and the Periostin (pg/mL), MRCS cells + IL-13 5 ng/mL; antibody at 13.3 nM [25] was 1350 pg/mL. The TARC (pg/mL), A549 cells + IL-13 + TNFα; antibody at 0.001 nM [25] was 3200 pg/mL, the TARC (pg/mL), A549 cells + IL-13 + TNFα; antibody at 0.004 nM [25] was 3150 pg/mL and the TARC (pg/mL), A549 cells + IL-13 + TNFα; antibody at 0.021 nM [25] was 3040 pg/mL. For the same binder, the TARC (pg/mL), A549 cells + IL-13 + TNFα; antibody at 0.11 nM [25] was 2610 pg/mL, the TARC (pg/mL), A549 cells + IL-13 + TNFα; antibody at 0.53 nM [25] was 2370 pg/mL and the TARC (pg/mL), A549 cells + IL-13 + TNFα; antibody at 2.67 nM [25] was 1090 pg/mL. It also gave a TARC (pg/mL), A549 cells + IL-13 + TNFα; antibody at 13.3 nM [25] of 227 pg/mL, a TARC (pg/mL), A549 cells + IL-13 + TNFα; antibody at 66.7 nM [25] of 54 pg/mL and a VCAM-1 fluorescence intensity, HUVEC + IL-13 0.5 ng/mL + TNFα; antibody at 0.0002 nM [25] of 408. It also gave a VCAM-1 fluorescence intensity, HUVEC + IL-13 0.5 ng/mL + TNFα; antibody at 0.001 nM [25] of 402, a VCAM-1 fluorescence intensity, HUVEC + IL-13 0.5 ng/mL + TNFα; antibody at 0.004 nM [25] of 452 and a VCAM-1 fluorescence intensity, HUVEC + IL-13 0.5 ng/mL + TNFα; antibody at 0.021 nM [25] of 408. It also gave a VCAM-1 fluorescence intensity, HUVEC + IL-13 0.5 ng/mL + TNFα; antibody at 0.11 nM [25] of 313, a VCAM-1 fluorescence intensity, HUVEC + IL-13 0.5 ng/mL + TNFα; antibody at 0.53 nM [25] of 299 and a VCAM-1 fluorescence intensity, HUVEC + IL-13 0.5 ng/mL + TNFα; antibody at 2.67 nM [25] of 238. It also gave a VCAM-1 fluorescence intensity, HUVEC + IL-13 0.5 ng/mL + TNFα; antibody at 13.3 nM [25] of 165 and an OD450 nm [26] of 2.4.
